# Source: paper PMC10341550, “Beta-Secretase 1 Recruits Amyloid-Beta Precursor Protein to ROCK2 Kinase, Resulting in Erroneous Phosphorylation and Beta-Amyloid Plaque Formation” (International Journal of Molecular Sciences, 2023)
# Experiments:
# [1] = biological target: BACE1 cytoplasmic domain peptide (residues 479–501), N-terminally labelled with 5-FAM; assay: fluorescence polarisation; direct titration: 50 nM fluorescein-labelled BACE1 peptide, dilution series of ROCK2; 20 mM Tris pH 8.0, 100 mM NaCl, 0.05% Brij35P, 2 mM DTT; 384-well plates
# [2] = biological target: Full-length ROCK2 protein (human ROCK2 1–1388) (human) (UniProt O75116); assay: SPR; Biacore X, CM5; full-length ROCK2 amine-coupled (1700 RU); analyte 7 µM with 100 µM MgATP (15-fold molar excess); HBS-EP pH 7.4, 10 µL/min
# Full-length ROCK2 protein (human ROCK2 1–1388) (human), sequence (O75116 whole entry): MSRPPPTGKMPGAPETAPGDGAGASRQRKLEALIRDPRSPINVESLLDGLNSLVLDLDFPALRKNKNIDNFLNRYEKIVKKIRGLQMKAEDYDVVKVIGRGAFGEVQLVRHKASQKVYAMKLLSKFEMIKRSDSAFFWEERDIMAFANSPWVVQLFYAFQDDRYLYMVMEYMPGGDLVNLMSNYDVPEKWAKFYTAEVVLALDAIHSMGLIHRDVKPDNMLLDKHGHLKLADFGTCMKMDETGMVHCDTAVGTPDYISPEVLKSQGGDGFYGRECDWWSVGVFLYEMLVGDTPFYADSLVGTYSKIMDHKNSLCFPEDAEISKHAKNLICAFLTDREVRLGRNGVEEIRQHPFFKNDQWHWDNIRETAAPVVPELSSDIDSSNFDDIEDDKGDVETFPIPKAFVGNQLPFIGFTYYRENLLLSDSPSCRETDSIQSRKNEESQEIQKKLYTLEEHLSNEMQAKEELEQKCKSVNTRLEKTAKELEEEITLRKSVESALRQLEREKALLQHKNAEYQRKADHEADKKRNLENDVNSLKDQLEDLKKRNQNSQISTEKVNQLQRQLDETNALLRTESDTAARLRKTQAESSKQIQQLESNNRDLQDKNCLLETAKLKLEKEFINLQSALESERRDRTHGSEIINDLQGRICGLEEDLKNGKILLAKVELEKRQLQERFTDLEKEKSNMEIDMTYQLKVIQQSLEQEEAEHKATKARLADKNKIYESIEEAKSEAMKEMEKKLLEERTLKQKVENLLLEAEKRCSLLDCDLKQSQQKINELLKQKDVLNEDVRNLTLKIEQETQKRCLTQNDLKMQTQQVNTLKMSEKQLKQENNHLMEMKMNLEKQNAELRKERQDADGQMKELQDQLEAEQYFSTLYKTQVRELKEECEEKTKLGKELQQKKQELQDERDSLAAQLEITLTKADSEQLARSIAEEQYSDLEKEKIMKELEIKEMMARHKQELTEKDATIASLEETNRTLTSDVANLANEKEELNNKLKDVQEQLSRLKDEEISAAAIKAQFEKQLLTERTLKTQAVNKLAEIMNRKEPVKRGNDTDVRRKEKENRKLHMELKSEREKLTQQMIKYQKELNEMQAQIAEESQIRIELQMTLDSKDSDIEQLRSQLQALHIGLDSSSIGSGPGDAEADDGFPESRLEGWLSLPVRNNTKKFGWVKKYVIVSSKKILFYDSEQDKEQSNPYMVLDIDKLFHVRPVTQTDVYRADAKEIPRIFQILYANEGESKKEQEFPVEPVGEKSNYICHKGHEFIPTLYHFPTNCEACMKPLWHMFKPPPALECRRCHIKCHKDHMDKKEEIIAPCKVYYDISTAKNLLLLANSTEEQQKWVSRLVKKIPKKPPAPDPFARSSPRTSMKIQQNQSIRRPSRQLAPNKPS
# Full-length ROCK2 protein (human ROCK2 1–1388), sequence (O75116 whole entry): as above
# ROCK2 kinase domain (27–417) construct, sequence (O75116 27-417): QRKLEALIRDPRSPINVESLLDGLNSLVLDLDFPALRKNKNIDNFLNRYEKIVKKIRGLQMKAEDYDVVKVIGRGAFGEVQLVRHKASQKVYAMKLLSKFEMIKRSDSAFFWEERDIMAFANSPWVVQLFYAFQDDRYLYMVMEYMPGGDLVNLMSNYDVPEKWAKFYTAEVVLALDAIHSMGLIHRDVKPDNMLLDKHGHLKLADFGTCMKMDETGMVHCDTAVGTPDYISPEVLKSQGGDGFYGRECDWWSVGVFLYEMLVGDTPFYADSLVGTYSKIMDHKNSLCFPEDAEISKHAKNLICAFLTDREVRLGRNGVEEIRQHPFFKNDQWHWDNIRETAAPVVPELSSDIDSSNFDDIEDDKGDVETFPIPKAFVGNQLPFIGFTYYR
Kd [1] [µM],percent of the theoretical signal [2] [%],response units [2] [RU],Substance
18,,,Full-length ROCK2 protein (human ROCK2 1–1388) (from UniProt O75116 1-1388) (enzyme)
18,,,ROCK2 kinase domain (27–417) construct (from UniProt O75116 27-417) (domain or fragment)
,50,11,"BACE1 cytoplasmic domain peptide (residues 479–501), free form"
